How the values were obtained:
BTK^C481S = BTK^C481S (Homo sapiens, UniProt Q06187, C481S); settings: cited from earlier work
BAFF receptor = target: T1, BAFF receptor (Homo sapiens, UniProt Q96RJ3); experiment: Phase Ib study CVAY736Y2102: BAFF receptor occupancy; format: in vivo; settings: VAY736 doses of 3 mg/kg or above
T1 construct: endogenous in cells; host or cells: B cells / tissue of CLL patients in study CVAY736Y2102 (for A6: simulated by a PK/PD model, not measured)
Text: (§1) The dosing cycle is 28 days. […] During the dose expansion part of the study, ibrutinib will be continued at the same dose schedule as tolerated before study enrollment, see exclusion criteria above for additional information on dose level.

BAFF = experiment: Phase Ib study CVAY736Y2102: free (soluble) BAFF; design: species or system human; settings: in vivo
Text: as §1

[1] = Phase Ib study CVAY736Y2102: pharmacokinetics of VAY736; format: in vivo, human; settings: in combination with ibrutinib
Text: as §1

Sequence of BTK^C481S (Q06187 whole entry C481S): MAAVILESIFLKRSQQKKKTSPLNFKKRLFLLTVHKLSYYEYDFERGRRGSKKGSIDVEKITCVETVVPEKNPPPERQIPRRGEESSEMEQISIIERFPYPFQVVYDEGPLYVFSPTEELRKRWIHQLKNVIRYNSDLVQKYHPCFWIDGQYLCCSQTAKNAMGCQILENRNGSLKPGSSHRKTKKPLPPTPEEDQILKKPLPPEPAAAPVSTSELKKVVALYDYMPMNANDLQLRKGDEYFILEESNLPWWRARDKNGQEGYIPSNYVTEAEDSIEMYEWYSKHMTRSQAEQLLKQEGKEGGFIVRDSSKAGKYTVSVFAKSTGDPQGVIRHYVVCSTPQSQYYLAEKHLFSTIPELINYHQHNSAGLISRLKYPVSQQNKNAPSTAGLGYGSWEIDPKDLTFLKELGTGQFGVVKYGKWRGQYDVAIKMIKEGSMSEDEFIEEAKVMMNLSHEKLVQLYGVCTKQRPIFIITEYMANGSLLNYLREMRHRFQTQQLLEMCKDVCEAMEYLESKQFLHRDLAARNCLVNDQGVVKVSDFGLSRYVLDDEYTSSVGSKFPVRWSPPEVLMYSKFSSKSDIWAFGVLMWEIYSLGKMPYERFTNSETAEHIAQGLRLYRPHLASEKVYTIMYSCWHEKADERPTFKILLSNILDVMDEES

Compound	activity against ibrutinib-resistant BTK^C481S mutation (BTK^C481S)	Tissue receptor occupancy (BAFF receptor) [%]	Free BAFF (BAFF)	VAY736 concentration: dose dependence [1]	dose at which linear PK achieved [1] [mg/kg]
C[C@H]1CN(C2COC2)CCN1c1ccc(Nc2cc(-c3ccnc(N4CCn5c(cc6c5CC(C)(C)C6)C4=O)c3CO)cn(C)c2=O)nc1 [fenebrutinib]	active against ibrutinib-resistant BTK^C481S	–	–	–	–
VAY736: non-fucosylated human IgG1 kappa anti-BAFFR antibody, heavy chain SEQ ID NO: 9, light chain SEQ ID NO: 10	–	> 99	accumulated to steady state with no dose relationship	increased with dose	≥ 3

— US20230340136A1, “TREATMENT OF CLL” (NOVARTIS AG, priority 2020, published 2023)
